Results published in patent publication US7816543B2, “Leptomycin derivatives” (Sanofi-Aventis, priority 2006, dated 2010).

Tests used:
[1] = tested on: COLO 205 (CanAg antigen-positive) cancer cells; assay: Cytotoxicity evaluation on COLO 205 cells; format: cell-based, human; details: COLO 205 (CanAg antigen-positive) cells, FIG. 1
Excerpt: (§1) The human cancer cell lines HL60, Namalwa, A-375, COLO205 and Ramos were obtained from the American Type Culture Collection (ATCC). Kara is a murine tumor cell line that has been stably transfected with the human CD33 antigen.

A375 cells = assay: Cytotoxicity evaluation on A375 cells; format: cell-based, human; details: FIG. 1
Excerpt: as §1

B1: huC242-SSNPB-leptomycin of example 6 (conjugate, chains of the INN, looked up)
VH: QVQLVQSGAEVKKPGETVKISCKASDYTFTYYGMNWVKQAPGQGLKWMGWIDTTTGEPTYAQKFQGRIAFSLETSASTAYLQIKSLKSEDTATYFCARRGPYNWYFDVWGQGTTVTVSS
VL: DIVMTQSPLSVPVTPGEPVSISCRSSKSLLHSNGNTYLYWFLQRPGQSPQLLIYRMSNLVSGVPDRFSGSGSGTAFTLRISRVEAEDVGVYYCLQHLEYPFTFGPGTKLELK
modifications: SSNPB-leptomycin conjugate
For B1, the IC50 [1] was 0.13 nM and the IC50 (A375 cells) was > 5 nM.
